This is an account of results in patent US8043804.

Sequence of acetylated p53, P04637 (P04637 whole entry, looked up): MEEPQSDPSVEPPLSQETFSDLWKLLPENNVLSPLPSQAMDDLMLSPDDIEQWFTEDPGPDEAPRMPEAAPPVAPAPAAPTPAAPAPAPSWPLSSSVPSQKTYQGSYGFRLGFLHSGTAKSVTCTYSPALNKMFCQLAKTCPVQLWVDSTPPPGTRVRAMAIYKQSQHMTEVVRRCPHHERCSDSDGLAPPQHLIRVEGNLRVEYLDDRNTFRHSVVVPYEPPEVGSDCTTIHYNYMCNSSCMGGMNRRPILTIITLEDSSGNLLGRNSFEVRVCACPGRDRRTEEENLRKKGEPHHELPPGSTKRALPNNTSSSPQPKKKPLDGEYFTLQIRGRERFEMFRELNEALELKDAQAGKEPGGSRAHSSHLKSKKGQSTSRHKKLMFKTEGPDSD

B1: Flag-SIRT1 (protein)
chain: MADEAALALQPGGSPSAAGADREAASSPAGEPLRKRPRRDGPGLERSPGEPGGAAPEREVPAAARGCPGAAAAALWREAEAEAAAAGGEQEAQATAAAGEGDNGPGLQGPSREPPLADNLYDEDDDDEGEEEEEAAAAAIGYRDNLLFGDEIITNGFHSCESDEEDRASHASSSDWTPRPRIGPYTFVQQHLMIGTDPRTILKDLLPETIPPPELDDMTLWQIVINILSEPPKRKKRKDINTIEDAVKLLQECKKIIVLTGAGVSVSCGIPDFRSRDGIYARLAVDFPDLPDPQAMFDIEYFRKDPRPFFKFAKEIYPGQFQPSLCHKFIALSDKEGKLLRNYTQNIDTLEQVAGIQRIIQCHGSFATASCLICKYKVDCEAVRGDIFNQVVPRCPRCPADEPLAIMKPEIVFFGENLPEQFHRAMKYDKDEVDLLIVIGSSLKVRPVALIPSSIPHEVPQILINREPLPHLHFDVELLGDCDVIINELCHRLGGEYAKLCCNPVKLSEITEKPPRTQKELAYLSELPPTPLHVSEDSSSPERTSPPDSSVIVTLLDQAAKSNDDLDVSESKGCMEEKPQEVQTSRNVESIAEQMENPDLKNVGSSTGEKNERTSVAGTVRKCWPNRVAKEQISRRLDGNQYLFLPPNRYIFHGAEVYSDSEDDVLSSSSCGSNSDSGTCQSPSLEEPMEDESEIEEFYNGLEDEPDVPERAGGAGFGTDGDDQEAINEAISVKQEVTDMNYPSNKS
For the protein B1, the “in vitro deacetylation assay (Western blot for acetylated p53)” value in the series with acetylated p53, P04637 is “deacetylation of p53 was observed when the Flag-SIRT1 protein was incubated with acetylated p53”.

B2: Flag-SIRT2 (protein)
chain: MAEPDPSHPLETQAGKVQEAQDSDSDSEGGAAGGEADMDFLRNLFSQTLSLGSQKERLLDELTLEGVARYMQSERCRRVICLVGAGISTSAGIPDFRSPSTGLYDNLEKYHLPYPEAIFEISYFKKHPEPFFALAKELYPGQFKPTICHYFMRLLKDKGLLLRCYTQNIDTLERIAGLEQEDLVEAHGTFYTSHCVSASCRHEYPLSWMKEKIFSEVTPKCEDCQSLVKPDIVFFGESLPARFFSCMQSDFLKVDLLLVMGTSLQVQPFASLISKAPLSTPRLLINKEKAGQSDPFLGMIMGLGGGMDFDSKKAYRDVAWLGECDQGCLALAELLGWKKELEDLVRREHASIDAQSGAGVPNPSTSASPKKSPPPAKDEARTTEREKPQ
For the protein B2, the “in vitro deacetylation assay” value with acetylated tubulin is given as “deacetylation of tubulin was observed when the purified SIRT2 protein was incubated with acetylated tubulin”.
